According to article PMC9340783 (2022):
Changes are numbered by the printed parent chain.

B1: hab076 (antibody, V domains shown)
VH: QVQLVESGGGVVQPGRSLRLSCAASGFTFSSYGMHWVRQAPGKGLEWVAVIWYETSNKYYADSVKGRFTISRDNSKNTLYLQMNSLRAEDTAVYYCARYGASSGWYWYFDLWGRGTLVTVSS
VL: DIQLTQSPSFLSASVGDRVTITCRASQGISSYLAWYQQKPGKAPKLLIYAASTLQSGVPSRFSGSGSGTEFTLTISSLQPEDFATYCCQQLNSYPFTFGQGTKLEIK
B2: hab070 (antibody, V domains shown)
VH: B1 VH with Y59F, A61V
VL: B1 VL with Y32F
B3: hab064 (antibody, V domains shown)
VH: B1 VH with S85N, A101G, S102N
VL: B1 VL with Y32F, K42T
B4: hab070e1 (antibody, V domains shown)
VH: B1 VH with Y59F, A61V
VL: B1 VL with Y32F, C87Y
B5: hab019e2 (antibody, V domains shown)
VH: QVQLVESGGGVVQPGRSLRLSCAASGFTFSSYGMHWVRQAPGKGLEWVAVIWYAGSRKFYADSVEGRFTISRDNSKNTLYLQMNSLRAEDTAVYYCARGGSLEGGFFYYGMDVWGQGTTVTVSS
VL: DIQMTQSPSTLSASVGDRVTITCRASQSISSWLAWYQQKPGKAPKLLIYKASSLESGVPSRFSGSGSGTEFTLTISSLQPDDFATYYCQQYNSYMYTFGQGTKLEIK
B6: hab019 (antibody, V domains shown)
VH: B5 VH with N84S, L86V, A88P, E103D
VL: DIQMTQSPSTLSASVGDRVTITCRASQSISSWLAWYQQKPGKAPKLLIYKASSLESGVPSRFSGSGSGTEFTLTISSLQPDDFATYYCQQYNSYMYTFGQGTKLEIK

Biological target: hGITR ECD hFc (human, UniProt Q9Y5U5 26-161, Thr45Ala)
Assay: SPR

Sequence of hGITR ECD hFc (Q9Y5U5 26-161 T45A): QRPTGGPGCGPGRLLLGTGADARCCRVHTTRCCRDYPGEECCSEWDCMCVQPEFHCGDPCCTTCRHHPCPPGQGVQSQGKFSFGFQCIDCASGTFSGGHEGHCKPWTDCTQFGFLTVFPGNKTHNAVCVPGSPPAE

Binder | koff [s⁻¹]
B1 | 0.000684
B2 | 0.000185
B3 | 0.000315
B4 | 0.000381
B5 | 0.00023
B6 | 0.000205
